B1: oligo CD (dsDNA)
DNA 1: ATGACAACTAAAGCAACACCCAAAACA
DNA 2: TGTTTTGGGTGTTGCTTTAGTTGTCAT
B2: oligo AB (dsDNA)
DNA 1: GGCCCCAGTGCTGCAATGATACCGCGAGAC
DNA 2: GTCTCGCGGTATCATTGCAGCACTGGGGCC

Each binder was assayed against T1, TtHU (Thermus thermophilus, UniProt P19436 2-97) (assay: EMSA; 1 uM DNA; EMSA: 20 mM Tris-HCl pH 7.5, 100 mM KCl, 37 °C, 1 h; CD: 20 mM phosphate pH 7.2, 100 mM KCl, 20 °C, 10 uM TtHU). Conditions: protein: recombinant; tags: none stated (pET-11a); chain copies: 2; duplex of complementary oligos.
T1 sequence: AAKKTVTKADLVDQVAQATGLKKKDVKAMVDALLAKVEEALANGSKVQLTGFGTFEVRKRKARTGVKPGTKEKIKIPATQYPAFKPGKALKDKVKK

Binder | binding result
B1 | binds
B2 | binds

Same assay, conditions: protein: recombinant; tags: none stated (pET-11a); chain copies: 2; single strand

Binder | binding result
GTCTCGCGGTATCATTGCAGCACTGGGGCC (ssDNA) [oligo B] | binds
GGCCCCAGTGCTGCAATGATACCGCGAGAC (ssDNA) [oligo A] | binds
ATGACAACTAAAGCAACACCCAAAACA (ssDNA) [oligo C] | binds
TGTTTTGGGTGTTGCTTTAGTTGTCAT (ssDNA) [oligo D] | binds

Source: publication PMC5613972, “A specific single-stranded DNA induces a distinct conformational change in the nucleoid-associated protein HU”
